Reference: the supplement of paper PMC10724198
± gives the standard deviation of the averaged measurements.

Key:
Saccharomyces cerevisiae [1] = experiment: protein stability index of tFT-peptide fusion in wild type (PSI (0-1 scale)); higher = more stable (slower turnover); details: genetic background: wild type
Saccharomyces cerevisiae [2] = experiment: protein stability index of tFT-peptide fusion in deletion strain of DOA10 (PSI (0-1 scale)); higher = more stable (slower turnover)
Method: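 MPS profiling in S. cerevisiae of two library types built from selected 12-aa C-degron peptides (IN1, IN2, LN1, LN3, VN2, R1-R5, W1-W3, Atg1 and Rpa12 C-termini): saturation mutagenesis libraries and C-terminal +1 capping libraries (13 aa). Each peptide is fused to the C-terminus of a sfGFP-mCherry timer, after a GGGS linker. Cells are FACS-sorted into 8 mCherry/sfGFP bins and sequenced. PSI runs from 0 (unstable) to 1 (stable), measured once in wild type and in the das1Δ or doa10Δ background.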

Saccharomyces cerevisiae [3] = experiment: protein stability index of tFT-peptide fusion (C-terminal peptide) (PSI (0-1 scale)); higher = more stable (slower turnover)
Method: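 MPS profiling in S. cerevisiae of the tFT-X12 degron library: putative degron peptides plus stable controls, 12 aa, fused to the C-terminus of a sfGFP-mCherry timer. Cells are FACS-sorted into 8 mCherry/sfGFP bins and deep-sequenced. PSI runs from 0 (unstable) to 1 (stable). Backgrounds are wild type, das1Δ and doa10Δ at 30 °C, and wild type, das1Δ, cdc34-1 and cdc53-1 at 37 °C; 2-3 technical replicates each.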

Saccharomyces cerevisiae [4] = experiment: as above; details: genetic background: wild type; temperature: 30 C
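Throughout, for protein stability index of tFT-peptide fusion (C-terminal peptide): PSI is a weighted mean of sequencing reads over stability bins, variants kept only with over 10 reads, mCherry proximal and sfGFP distal, peptide attached via GGGS linker.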
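Throughout, for protein stability index of tFT-peptide fusion in deletion strain of DOA10: PSI per variant is the weighted mean of its sequencing read distribution over the sorted stability bins, counting only variants with over 10 reads summed across bins.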
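Throughout, for protein stability index of tFT-peptide fusion in wild type: PSI derived as read-weighted mean over the 8 sorting bins, only variants exceeding 10 total reads kept, mCherry placed adjacent to the peptide and sfGFP distal.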

Sequence	protein stability index (Saccharomyces cerevisiae [1])	protein stability index (Saccharomyces cerevisiae [2])	other results
SLVSLPILLFFR	0.0746	0.619	
CLVSLPILLFFV	0.206	0.385	
AITLPMCDLLLR	0.639	0.675	
RVTRLDAIYFRK	0.673	0.711	
AINLPMCPLLLR	0.243	0.656	
CLVSLPILLDFR	0.553	0.643	
AITLPMCPLILR	0.238	0.656	
CLVSLPQLLFFR	0.0822	0.655	
CLVSVPILLFFR	0.064	0.565	
GLAMCSVGCWFR	0.268	0.661	
RVTRLDAIYFRH	0.604	0.716	
CLVSLSILLFFR	0.183	0.286	
GLYMCSVGCWFRP	0.287	0.62	
RSARVLLPLYFR	0.336	0.687	
ILVSLPILLFFR	0.111	0.545	
KLVSLPILLFFR	0.0816	0.612	
CLQSLPILLFFR	0.0983	0.631	
CLVSLPILLFIR	0.0496	0.46	
CLVSLPILSFFR	0.581	0.658	
RSLRVLMPLYFR	0.254	0.697	
CLWSLPILLFFR	0.0887	0.594	
RSLRVLLPLAFR	0.37	0.652	
GLYMCIVGCWFR	0.214	0.364	
RSLRVLLFLYFR	0.21	0.45	
GLYMCSVGCEFR	0.594	0.625	

Sequence	protein stability index (Saccharomyces cerevisiae [1])	protein stability index (Saccharomyces cerevisiae [2])	other results
RSLRVLLPLYFV	0.25	0.428	
AITLPMCPLVLR	0.233	0.646	
AITLPMCPLLTR	0.561	0.606	
AITLPMCPKLLR	0.643	0.671	
CLVSLPPLLFFR	0.0903	0.661	
RVTRLSAIYFRI	0.22	0.458	
GLYMCSVGCWFRQ	0.113	0.182	
GLYMCSVACWFR	0.228	0.441	
RSLRVLCPLYFR	0.305	0.652	
RVTRLDAIDFRI	0.668	0.746	
CLVSLPILLFFRQ	0.0783	0.362	
AITDPMCPLLLR	0.603	0.693	
RVTRRDAIYFRI	0.485	0.673	
GLYMCSYGCWFR	0.299	0.677	
RSLRVLLPLYFC	0.0775	0.175	
AITLPMCFLLLR	0.0902	0.62	
RVTRLDAIYFEI	0.69	0.725	
AITLPMCPLHLR	0.566	0.68	
RVTRLWAIYFRI	0.167	0.377	
GLYMCSVGCQFR	0.618	0.647	
RSLRVLFPLYFR	0.196	0.684	
CLVSLPILLFFL	0.293	0.45	
RSLRVLLPLYFW	0.339	0.589	
GLYMCSVGCWFG	0.456	0.478	
RVTRLVAIYFRI	0.19	0.394	

Sequence	protein stability index (Saccharomyces cerevisiae [1])	protein stability index (Saccharomyces cerevisiae [2])	other results
RVTRLDAITFRI	0.678	0.72	
AITLPMCPMLLR	0.392	0.661	
AITLPMCPLLLM	0.505	0.545	
RVTHLDAIYFRI	0.471	0.645	
GLYMCSVGCWFP	0.607	0.636	
GLYMCSVGCWFR	0.264	0.629	protein stability index (Saccharomyces cerevisiae [3]; genetic background: cdc34-1, temperature: 37 C): 0.104 ± 0.0033; protein stability index (Saccharomyces cerevisiae [3]; genetic background: cdc53-1, temperature: 37 C): 0.0717 ± 0.0099; protein stability index (Saccharomyces cerevisiae [3]; genetic background: das1 deletion, temperature: 30 C): 0.223 ± 0.033; protein stability index (Saccharomyces cerevisiae [3]; genetic background: das1 deletion, temperature: 37 C): 0.2809 ± 0.001; protein stability index (Saccharomyces cerevisiae [3]; genetic background: doa10 deletion, temperature: 30 C): 0.586 ± 0.011; protein stability index (Saccharomyces cerevisiae [3]; genetic background: wild type, temperature: 30 C): 0.231 ± 0.018; protein stability index (Saccharomyces cerevisiae [3]; genetic background: wild type, temperature: 37 C): 0.252 ± 0.0062; protein stability index (Saccharomyces cerevisiae [4]): 0.408 ± 0.085
GLYMCSVGCWNR	0.618	0.64	
GSYMCSVGCWFR	0.411	0.678	
GLYMCSVGCWFRW	0.231	0.621	
AITLPMCPLKLR	0.549	0.668	
GLYMCSVGCRFR	0.625	0.654	
AITLPRCPLLLR	0.265	0.662	
RVTVLDAIYFRI	0.516	0.651	
GLYCCSVGCWFR	0.342	0.658	
RSLRVLLPLYCR	0.266	0.457	
RVTRLDAIYFII	0.0744	0.111	
RSLRVLLPLYFRR	0.315	0.675	
RSTRVLLPLYFR	0.292	0.684	
CIVSLPILLFFR	0.0595	0.566	
CLVSLPILLFFRW	0.0557	0.473	
CLVSWPILLFFR	0.0554	0.595	
AITLPMCPLQLR	0.608	0.68	
RSLRPLLPLYFR	0.316	0.688	
CLVSLPILLFFD	0.433	0.583	
CLVSLPILLFKR	0.413	0.665	

Sequence	protein stability index (Saccharomyces cerevisiae [1])	protein stability index (Saccharomyces cerevisiae [2])	other results
RSLRVLKPLYFR	0.304	0.675	
CLVSLPILLFFRK	0.115	0.57	
CLVSLPILLFFRV	0.0545	0.413	
GLYMCSVGCWFE	0.474	0.512	
AIKLPMCPLLLR	0.276	0.652	
ACTLPMCPLLLR	0.318	0.678	
AITLPMCPLLLD	0.608	0.684	
RKTRLDAIYFRI	0.49	0.628	
GLYMCSVGCWFRG	0.334	0.635	
AITLPMTPLLLR	0.229	0.644	
CMVSLPILLFFR	0.0703	0.584	
GLYMCSVGIWFR	0.165	0.409	
AITLPMCKLLLR	0.392	0.663	
GLYMCSLGCWFR	0.283	0.658	
GLYMCSVGCYFR	0.425	0.638	
CLVSLPILLAFR	0.115	0.594	
CLVSLHILLFFR	0.144	0.292	
GLYMCSVGCAFR	0.614	0.629	
RSLRVLLPLYYR	0.375	0.657	
AITLPMCPLLYR	0.529	0.652	
AITLPMQPLLLR	0.238	0.639	
AITAPMCPLLLR	0.472	0.66	
